Laboratory results as given in the RNAGym collection of RNA variant scans (doi:10.7554/elife.80360).

B1: CPEB3 Ribozyme (parent)
chain: GGGGGCCACAGCAGAAGCGUUCACGUCGCGGCCCCUGUCAGAUUCUGGUGAAUCUGCGAAUUCUGCUGU

Variants of: B1
Assay: self-cleavage, relative activity (ratio to wild type); higher = more cleavage; co-transcriptional

Variant	self-cleavage
GGGGGCCACAGCAGAAGCGUACACGUCCCGGCCCCUGUCAGAUUCUGGUGAAUCUGCGAAUUCUGCUGU	0.193
GGGGGCCACAGCAGAAGCGUACACGUCACGGCCCCUGUCAGAUUCUGGUGAAUCUGCGAAUUCUGCUGU	0.219
GGGGGCCACAGCAGAAGCGUACACGUCGCGGCCCCUUUCAGAUUCUGGUGAAUCUGCGAAUUCUGCUGU	0.356
GGGGGCCACAGCAGAAGCGUACACGUCGCGGCCCCUGUCAAAUUCUGGUGAAUCUGCGAAUUCUGCUGU	0.855
GGGGGCCACAGCAGAAGCGUACACGUCGCGGCCCCUGUCACAUUCUGGUGAAUCUGCGAAUUCUGCUGU	0.694
GGGGGCCACAGCAGAAGCGUACACGUCGCGGCCCCUGUCAUAUUCUGGUGAAUCUGCGAAUUCUGCUGU	0.824
GGGGGCCACAGCAGAAGCGUACACGUCGCGGCCCCUGUCAGAUUUUGGUGAAUCUGCGAAUUCUGCUGU	0.967
GGGGGCCACAGCAGAAGCGUACACGUCGCGGCCCCUGUCAGAUUGUGGUGAAUCUGCGAAUUCUGCUGU	0.956
GGGGGCCACAGCAGAAGCGUACACGUCGCGGCCCCUGUCAGAUUCUGGUGAAUCUCCGAAUUCUGCUGU	0.755
GGGGGCCACAGCAGAAGCGUACACGUCGCGGCCCCUGUCAGAUUCUGGUGAAUCUUCGAAUUCUGCUGU	0.936
GGGGGCCACAGCAGAAGCGUACACGUCGCGGCCCCUGUCAGAUUCUGGUGAAUCUACGAAUUCUGCUGU	0.954
GGGGGCCACAGCAGAAGCGUACACGUCGCGGCCCCUGUCAGAUUCUGGUGAAUCUGCGAAUUCUCCUGU	0.6
GGGGGCCACAGCAGAAGCGUACACGUCGCGGCCCCUGUCAGAUUCUGGUGAAUCUGGGAAUUCUGCUGU	0.361
GGGGGCCACAGCAGAAGCGUACACGUCGCGGCCCCUGUCAGAUUCUGGUGAAUCUGUGAAUUCUGCUGU	0.447
GGGGGCCACAGCAGAAGCGUACACGUCGCGGCCCCUGUCAGAUUCUGGUGAAUCUGAGAAUUCUGCUGU	0.268
GGGGGCCACAGCAGAAGCGUACACCUCGCGGCCCCUGUCAGAUUCUGGUGAAUCUGCGAAUUCUGCUGU	0.249
GGGGGCCACAGCAGAAGCGUACACUUCGCGGCCCCUGUCAGAUUCUGGUGAAUCUGCGAAUUCUGCUGU	0.136
GGGGGCCACAGCAGAAGCGUACACAUCGCGGCCCCUGUCAGAUUCUGGUGAAUCUGCGAAUUCUGCUGU	0.244
GGGGGCCACAGCAGAAGCGUACACGUCGCGGCCCCUGUCAGAUUCUUGUGAAUCUGCGAAUUCUGCUGU	0.992
GGGGGCCACAGCAGAAGCGUACACGUCGCGGCCCCUGUCAGAUUCUCGUGAAUCUGCGAAUUCUGCUGU	0.988

Variant	self-cleavage
GGGGGCCACAGCAGAAGCGUACACGUCGCGGCCCCUGUCAGAUUCUAGUGAAUCUGCGAAUUCUGCUGU	0.969
GGGGGCCACAGCAGAAGCGUACACGUCGCGGCCCCUGUCAGAUUCUGUUGAAUCUGCGAAUUCUGCUGU	0.978
GGGGGCCACAGCAGAAGCGUACACGUCGCGGCCCCUGUCAGAUUCUGAUGAAUCUGCGAAUUCUGCUGU	1
GGGGGCCACAGCAGAAGCGUACACGUCGCUGCCCCUGUCAGAUUCUGGUGAAUCUGCGAAUUCUGCUGU	0.343
GGGGGCCACAGCAGAAGCGUACACGUCGCCGCCCCUGUCAGAUUCUGGUGAAUCUGCGAAUUCUGCUGU	0.532
GGGGGCCACAGCAGAAGCGUACACGUCGCGGCCCCUGUCAGAUUCUGGUGAAUCUGCAAAUUCUGCUGU	0.898
GGGGGCCACAGCAGAAGCGUACACGUCGCGGCCCCUGUCAGAUUCUGGUGAAUCUGCGAAUUCUGCUCU	1.02
GGGGGCCACAGCAGAAGCGUACACGUCGCGGCCCCUGUCAGAUUCUGGUGAAUCUGCGAAUUCUGAUGU	0.781
GGGGGCCACAGCAGAAGCGUACACGUCGCGGCCCCUGUCAGAUUCUGGUGAAUCUGCGAAUUCUGGUGU	0.835
GGGGGCCACAGCAGAAGCGUACACGUCGCGGCCCCUGUCAGAUUCUGGUGAAUCUGCGAAUUUUGCUGU	0.921
GGGGGCCACAGCAGAAGCGUACACGUCGCGGCCCCUGUCAGAUUCUGGUGAAUCUGCGAAUUGUGCUGU	0.727
GGGGGCCACAGCAGAAGCGUACACGUCGCGGCCCCUGUCAGAUUCUGGUGAAUCUGCGAAUUAUGCUGU	0.795
GGGGGCCACAGCAGAAGCGUACACGUCGCGGCCCCUGUCAGAUUCUGGUCAAUCUGCGAAUUCUGCUGU	0.924
GGGGGCCACAGCAGAAGCGUACACGUCGCGGCCCCUGUCAGAUUCUGGUAAAUCUGCGAAUUCUGCUGU	0.989
GGGGGCCACAGCAGAAGCGUACACGUCGCGGCCCCUGUCAGAUUCUGGUGAAUUUGCGAAUUCUGCUGU	0.673
GGGGGCCACAGCAGAAGCGUACACGUCGCGGCCCCUGUCAGAUUCUGGUGAAUGUGCGAAUUCUGCUGU	0.936
GGGGGCCACAGCAGAAGCGUACACGUCGCGGCCCCUGUCAGAUUCUGGUGAAUAUGCGAAUUCUGCUGU	0.872
GGGGGCCACAGCAGAAGCGUACACGUCGCGACCCCUGUCAGAUUCUGGUGAAUCUGCGAAUUCUGCUGU	0.803
GGGGGCCACAGCAGAAGCGUACACGUCGCGUCCCCUGUCAGAUUCUGGUGAAUCUGCGAAUUCUGCUGU	0.595
